From PMC4244113
Like-named read-outs stand apart in the source and are kept apart here.

What was measured:
Experiment in all cases: SPR
[1] = molecular target: Turnip mosaic virus (TuMV) viral protein-genome linked (VPg), His-tagged (turnip mosaic virus)
[2] = molecular target: Turnip mosaic virus (TuMV) viral protein-genome linked (VPg), His-tagged (turnip mosaic virus); remark: listed apart in the source
[3] = molecular target: Turnip mosaic virus (TuMV) viral protein-genome linked (VPg), His-tagged (turnip mosaic virus); remark: listed apart in the source

Chain of Turnip mosaic virus (TuMV) viral protein-genome linked (VPg), His-tagged (turnip mosaic virus) (P89509 1925-2116 limits assumed): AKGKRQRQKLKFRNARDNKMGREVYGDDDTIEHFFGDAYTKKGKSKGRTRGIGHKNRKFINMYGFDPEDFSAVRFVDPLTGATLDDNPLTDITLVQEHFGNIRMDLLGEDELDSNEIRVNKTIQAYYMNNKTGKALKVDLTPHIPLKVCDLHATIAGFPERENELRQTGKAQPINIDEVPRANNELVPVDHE

“N-terminal 33 residues-deleted human eIF4E (from UniProt P06730 34-217) (domain or fragment)” gave a Kd [1] of 3290 nM, a koff [1] of 0.00447 s⁻¹ and a kon [1] of 1360 M⁻¹ s⁻¹.

B1: Arabidopsis thaliana eIFiso4E (natural protein)
chain: MATDDVNEPLPAAAELPATEAEKQPHKLERKWSFWFDNQSKKGAAWGASLRKAYTFDTVEDFWGLHETIFQTSKLTANAEIHLFKAGVEPKWEDPECANGGKWTWVVTANRKEALDKGWLETLMALIGEQFDEADEICGVVASVRPQSKQDKLSLWTRTKSNEAVLMGIGKKWKEILDVTDKITFNNHDDSRRSRFTV
Work on B1 yielded a Kd [2] of 208 nM, a koff [2] of 0.00432 s⁻¹ and a kon [2] of 20800 M⁻¹ s⁻¹. The Kd [3] was 1410 nM, the koff [3] was 0.00459 s⁻¹ and the kon [3] was 3250 M⁻¹ s⁻¹.
